The target in assay [1] is S-Trimer (ectodomain of wild-type SARS-CoV-2 Spike protein fused to Trimer-Tag) (SARS-CoV-2 | human) (UniProt P0DTC2). Kind of assay: SDS-PAGE under non-reducing and reducing conditions.
Assay [2] has as its target ACE2-Fc (soluble human ACE2 fused to human IgG Fc) (human) (UniProt Q9BYF1). Description: BLI; ForteBio Octet QKe; ACE2-Fc (10 µg/mL) immobilized on Protein A biosensors; 2-fold serial dilutions of S-Trimer (22.5–36 µg/mL in PBS); KD by steady state analysis, 1:1 binding model.
Assay [3] deals with S-Trimer (ectodomain of wild-type SARS-CoV-2 Spike protein fused to Trimer-Tag) (SARS-CoV-2 | human) (UniProt P0DTC2). Kind of assay: negative-stain electron microscopy; S-Trimer 25 μg/mL in PBS adjusted to pH 5.5; 1% uranyl formate pH 4.0; FEI Tecnai spirit, 120 KeV.

ACE2-Fc (soluble human ACE2 fused to human IgG Fc) (human), sequence (Q9BYF1 18-738): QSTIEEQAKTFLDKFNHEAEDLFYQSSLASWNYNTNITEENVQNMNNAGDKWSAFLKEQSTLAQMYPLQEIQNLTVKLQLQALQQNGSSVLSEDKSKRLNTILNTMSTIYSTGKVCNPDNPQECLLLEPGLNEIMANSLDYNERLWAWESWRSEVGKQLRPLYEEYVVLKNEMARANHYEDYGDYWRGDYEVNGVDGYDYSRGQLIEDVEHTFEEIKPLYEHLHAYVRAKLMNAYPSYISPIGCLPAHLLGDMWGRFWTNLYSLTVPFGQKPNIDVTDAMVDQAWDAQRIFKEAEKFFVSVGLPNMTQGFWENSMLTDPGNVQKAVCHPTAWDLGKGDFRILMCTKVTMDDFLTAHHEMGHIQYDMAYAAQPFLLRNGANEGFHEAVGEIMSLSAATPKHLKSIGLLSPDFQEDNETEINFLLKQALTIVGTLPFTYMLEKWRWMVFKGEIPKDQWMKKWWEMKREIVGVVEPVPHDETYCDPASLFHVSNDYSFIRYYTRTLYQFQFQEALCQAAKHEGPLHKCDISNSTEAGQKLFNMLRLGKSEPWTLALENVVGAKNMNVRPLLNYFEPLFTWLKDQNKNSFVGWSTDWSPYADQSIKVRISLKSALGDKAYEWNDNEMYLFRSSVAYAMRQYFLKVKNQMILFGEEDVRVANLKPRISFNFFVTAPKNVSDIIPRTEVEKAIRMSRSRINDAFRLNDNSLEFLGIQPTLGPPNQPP

In the case of “S-Trimer (ectodomain of wild-type SARS-CoV-2 Spike protein fused to Trimer-Tag) (from UniProt P0DTC2;P02452)”, the stoichiometry N in assay [1] and in assay [3] was 3 throughout. For the same substance, the Kd in assay [2] turned out to be 1.33 nM.

These data come from PMC7921634.
